{
  "source": "the DeepSol protein solubility set",
  "data": [
    {"test": "soluble on expression in E. coli; label from the status in PepcDB or PDB records", "values": [
      {"sequence": "MSLRVDTLIRGGVVLTMDGDFTRHDAGYVAVTGGRISHVGADADAAGLSAERVIDAEGGIILPGFVNTHCHAAMTLFRGLADDVDLDGFLRTVWRAEAEHIGPASVELGAELAIAEMALSGVTHFLDMYWYPEATIAAAQRVGMGLTSGPPMLNVEGVDGMGWAERMAYTEGFLERYSGVDGVQPMLLPHGCYTLDADKLAEIANLARAAGCGVHIHAAEAAWEMQLVRDAYGTTPVRALERAGLLEQPLLLAHAVHLDGEEIALLADAGAGVAHCPLSNAKLASGMAPIGEMRASGVTLSLGTDGPASGNDLDMFATMRLAALVHNLRSGTSDTLPARDLVAMATSGGAMALGLGARTGSLEVGKQADITVVATDAPHNVPSYCPYSTLVFSAGRSEVRHVLARGRALVADGRPTTPTEPVKAEVRRLAADIANRRDEGHHHHHH", "soluble on expression in E. coli": "soluble"},
      {"sequence": "DEEDANFMQRAFEMNDKVASDVMVDRTSMSVVDVDETIADALLLYLEEQYSRFPVTADNDKDKIIGYAYNYDIVRQARIDDKAKISTIMRDIVSVPENMKVPDVMEEMSAHRVPMAIVIDEYGGTSGIITDKDVYEELFGNLRDEQDDED", "soluble on expression in E. coli": "soluble"},
      {"sequence": "MRLIMKPEHSTRGRVIFVGAGPGNPDLLTVRAREVLGSTANAVVDSTVGVGIRAVIAEHLEVPQAKLDAAEAEYERMCAAAKRRKPPRPDAPTAAEITEVSADASVDEVMAVLLPLLDEGDVIRLVQGNPLADSRALDEITAVTQVGADFQIVPGMSLPAAVPAFAGITLGDSYTKTTVSEDTNWDQLATAPLPLILQASKDDLLTIAMELKDRKLPASTPVTVTMNGTTRLQRSFDVTLKTMKSLVKQELDGTLVVTVGVSDRSTFSWWESRALFGWRVLVPRAKDQAGPMSSRIAAYGAIAQEVPTISVEPPRNPAQLERAIKGIVEGRYQWVVFTSVNAVKAVREKIVSFGLDSRAFAGVHIAAVGAKTAAAIREFGITPELIPPRKEHNAAGMVSVFPNYVEGLDPVGRVLLPRADIATDVLVDGLVNLGWEVDDVVAYRTVRAAPPSAEVRDMIKSGDFDAVCFTSASTVRNLVGIAGKPHARTIIACIGPMTAAEAEKQGLRVDVIPEVANVAALVDALAEHVEKLRAAGELPPPRKKRRARRKSKEGAV", "soluble on expression in E. coli": "not soluble"},
      {"sequence": "MGSDKIHHHHHHMVAVPQAHPLSVAEYLQFEAASEIKHEYRAGEVYAMADITDVHNTIVGNWVALIRSHVRGSSDRVYCSAMQVWLQQANCIYYPDLLVTCDPRDQETVNYKRFPKLIVEVLSPSTEAFDRGDKFADYQTLETLEEYVLISTSRQRVDCFRRSLEGVWTLQFYLPNAEVLPLRSIGLEVRLSDLYEDVTLPAPPSIPESLEESR", "soluble on expression in E. coli": "not soluble"},
      {"sequence": "MSLGQVGVGRVLQRYIILKGRNSEHLFVAAESLIAIDRLPAAIITRLTQTNDPLGEVMAASHIETFKEEAKVWVGDLPGWLALHGYQNSRKRAVARRYRVISGGQPIMVVTEHFLRSVFRDEGHHHHHH", "soluble on expression in E. coli": "not soluble"},
      {"sequence": "MSLDQPLTFYGLKSMSGAFASYGKYADMGSRLAIAEHPQLLGHPLKYKVIDTEGNAGKAVRKVQEAIGQDGARFFQGCTLSSSALAVSKEIHKAGGVFMTPVGADEITGKDCNASTFRWSVPTYGAIRETLVPMSRQLPQAKRWYTITPQYVFGDALLDNARKVFAELGVEHIGNSYHSLQEQEFSGYLTNAIAAKPDVLVLLNFGSQASNALRQAVNFGIKDRMKVLMVWSAGLDQFQELGSDVLEGVYLGAQYWHQVDTPLNKLLVAATRKAYGINPNYPLAADYIGTKVMLEAIVKAGSLDGAAVSAALQGMRFQGPTGEELIRPGDHQVLKDYYLLRGKPQGQMRDEGHHHHHH", "soluble on expression in E. coli": "not soluble"},
      {"sequence": "MITLGFMSLSRQHEADYSAELAKRAPEFGIRFIRFTPFDISPDTLRVKASVYHSASSTWNETEMAIPDYIYDRCFYGKDSHSQKAKPIVEWLKKYPKTEFIGRGLPDKWTVLHDLQQHSVINPYIPETIKVSRYEQIHSFLSKEKACILKPAFGAGGRGVILLKLGKKNITATYHIGKDKQTKTFSNQTSFKTWCKKVLQHQYLLQPYLNIQDKEQYPCDIRLFMEKNEAGEWNTVGKAVRRGYKHGLLANLSGGSDALTFDSWFEDIPKKQQVVLLDDVFSITQSVPYYLDERYGPLFELGLDICLAKDGRIWILDINSKPGRKSILRVSPEQKEQLYTCPLKRCQYLFSEQSQKGVLPRES", "soluble on expression in E. coli": "not soluble"},
      {"sequence": "REGVFRAERQRKAGELIISREPLTGLDDAARSQALLALVRRKGLELLPWTPELRQWQARVALLRSLDIDKSATSEWPDLSDAQLLATLENWLMPYLGKVT", "soluble on expression in E. coli": "not soluble"},
      {"sequence": "MAAQVTLEDALSNVDLLEELPLPDQQPCIEPPPSSLLYQPNFNTNFEDRNAFVTGIARYIEQATVHSSMNEMLEEGQEYAVMLYTWRSCSRAIPQVKCNEQPNRVEIYEKTVEVLEPEVTKLMNFMYFQRNAIERFCGEVRRLCHAERRKDFVSEAYLITLGKFINMFAVLDELKNMKCSVKNDHSAYKRAAQFLRKMADPQSIQESQNLSMFLANHNKITQSLQQQLEVISGYEELLADIVNLCVDYYENRMYLTPSEKHMLLKVMGFGLYLMDGSVSNIYKLDAKKRINLSKIDKYFKQLQVVPLFGDMQIELARYIKTSAHYEENKSRWTCTSSGSSPQYNICEQMIQIREDHMRFISELARYSNSEVVTGSGRQEAQKTDAEYRKLFDLALQGLQLLSQWSAHVMEVYSWKLVHPTDKYSNKDCPDSAEEYERATRYNYTSEEKFALVEVIAMIKGLQVLMGRMESVFNHAIRHTVYAALQDFSQVTLREPLRQAIKKKKNVIQSVLQAIRKTVCDWETGHEPFNDPALRGEKDPKSGFDIKVPRRAVGPSSTQLYMVRTMLESLIADKSGSKKTLRSSLEGPTILDIEKFHRESFFYTHLINFSETLQQCCDLSQLWFREFFLELTMGRRIQFPIEMSMPWILTDHILETKEASMMEYVLYSLDLYNDSAHYALTRFNKQFLYDEIEAEVNLCFDQFVYKLADQIFAYYKVMAGSLLLDKRLRSECKNQGATIHLPPSNRYETLLKQRHVQLLGRSIDLNRLITQRVSAAMYKSLELAIGRFESEDLTSIVELDGLLEINRMTHKLLSRYLTLDGFDAMFREANHNVSAPYGRITLHVFWELNYDFLPNYCYNGSTNRFVRTVLPFSQEFQRDKQPNAQPQYLHGSKALNLAYSSIYGSYRNFVGPPHFQVICRLLGYQGIAVVMEELLKVVKSLLQGTILQYVKTLMEVMPKICRLPRHEYGSPGILEFFHHQLKDIVEYAELKTVCFQNLREVGNAILFCLLIEQSLSLEEVCDLLHAAPFQNILPRVHVKEGERLDAKMKRLESKYAPLHLVPLIERLGTPQQIAIAREGDLLTKERLCCGLSMFEVILTRIRSFLDDPIWRGPLPSNGVMHVDECVEFHRLWSAMQFVYCIPVGTHEFTVEQCFGDGLHWAGCMIIVLLGQQRRFAVLDFCYHLLKVQKHDGKDEIIKNVPLKKMVERIRKFQILNDEIITILDKYLKSGDGEGTPVEHVRCFQPPIHQSLASS", "soluble on expression in E. coli": "not soluble"},
      {"sequence": "MPFVPVAALKDYVGKDLGHSEWLTIDQERVDQFAECTGDHQFIHVDPEKAAKTPFGGTIAHGFLSLSLIPKLMEGLLVLPEGLKMAVNYGLDTVRFIQPVRVGSRVRLGLTLLDVNEKNPGQWLIKARATLEIEGQEKPAYIAETLSLCFV", "soluble on expression in E. coli": "not soluble"},
      {"sequence": "LKSLKDVTDHKKVNANDEDYKYIDMWKRLYQGHYAEWHNLNYEHNGNPVNRRQLSMNLPKVTAKYMSKLLFNEKVKINIDDKAAEEFVLNVLKTNGFTKNMERYIEYGEAMGGFVIKVYHDGNKNVKISFATADCMYPLSNDSENVDECVIANSFHKNNKYYKLLEWNEWKGKEEKVYTITTELYQSDNPDELGGEVSLKLLFNDIEPVVPLPPLTRPTFIYIKPNIANNKNLTSPLGISIYANALDTLKTLDLMFDSYYQEFKLGKKKVLVPSSFVKTAVNLDGSTTQYFDSTDEAFFLYQGDQDADGKSVKDISVEIRSTEFIESINAMLRIYAMQVGLSAGTFTFDENGLKTATEVVSEKSETYQTKNSHSQLIEQGIKEMIVSILEVGKFIEAYSGDVVELDTITVDFDDSIAQDEDTTINRYTTAKNQGMIPLKIALQRAWNITDAEAEEWKEEIEKDARAEIPG", "soluble on expression in E. coli": "not soluble"},
      {"sequence": "MGSDKIHHHHHHMMKLTALVDNTRLDSRPELAVERGLSFHVETMGSQILFDTGSSSTFCENAALMNISIQDVDLAVISHRHHDHCNGTTHFIERNSKAKIYLKDCEDKNYLFKAFGFKNDVGINKELLKNASERLIFVEHTTEILPNIFIITEISDKYEKPKGNRYLYTQSENGYKNDTFDHELLLVVKESDGLIVFTGCAHSGVLNMVETAIELFPNHRIKAVVGGFHLVGLPLLNSIGGTKQDIQAIGQALSHYPIDKLYTGHCTGMKAFGLLKEVLGDRLEHLPTGRSVLI", "soluble on expression in E. coli": "not soluble"}
    ]}
  ]
}
